The experiment deals with TROP-2 (EGP-1, epithelial glycoprotein-1) (human) (UniProt P09758). Nature of the experiment: cell-based or functional assay.

ADCC, specific lysis of BxPC-3 target cells (PBMC effectors, effector to target ratio 100:1, 33.3 nM) data for 1 molecule are collected here from US20140219956A1.

TROP-2 (EGP-1, epithelial glycoprotein-1) (human), sequence (P09758 27-323): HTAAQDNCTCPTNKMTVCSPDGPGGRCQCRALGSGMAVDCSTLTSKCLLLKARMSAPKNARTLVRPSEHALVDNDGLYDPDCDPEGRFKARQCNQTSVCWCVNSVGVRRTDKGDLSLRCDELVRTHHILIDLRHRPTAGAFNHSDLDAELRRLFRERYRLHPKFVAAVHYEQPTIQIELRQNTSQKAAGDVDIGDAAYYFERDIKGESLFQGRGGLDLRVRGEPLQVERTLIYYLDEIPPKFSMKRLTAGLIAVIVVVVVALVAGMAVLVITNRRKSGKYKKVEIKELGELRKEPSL

B1: hRS7 (humanized anti-TROP-2 / anti-EGP-1 antibody), unconjugated IgG (antibody, INN chains, looked up, V domains shown)
VH: QVQLQQSGSELKKPGASVKVSCKASGYTFTNYGMNWVKQAPGQGLKWMGWINTYTGEPTYTDDFKGRFAFSLDTSVSTAYLQISSLKADDTAVYFCARGGFGSSYWYFDVWGQGSLVTVSS
VL: DIQLTQSPSSLSASVGDRVSITCKASQDVSIAVAWYQQKPGKAPKLLIYSASYRYTGVPDRFSGSGSGTDFTLTISSLQPEDFAVYYCQQHYITPLTFGAGTKVEIK
For the molecule B1, the ADCC, specific lysis of BxPC-3 target cells (PBMC effectors, effector to target ratio 100:1, 33.3 nM) came out at 8.5%.
